Measurements published in the RNAGym collection of RNA variant scans (doi:10.1093/molbev/msab373).

B1: Azoarcus group I ribozyme (parent)
chain: GUGCCUUGCGCCGGGAAACCACGCAAGGGAUGGUGUCAAAUUCGGCGAAACCUAAGCGCCCGCCCGGGCGUAUGGCAACGCCGAGCCAAGCUUCGGCGCCUGCGCCGAUGAAGGUGUAGAGACUAGACGGCACCCACCUAAGGCAAACGCUAUGGUGAAGGCAUAGUCCAGGGAGUGGCGAAAGUCACACAAACCGG

Variants of: B1
Test: reverse-splicing fitness (ratio to wild type); higher = more active; in vitro selection; Mg2+ level not given
In short: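 An in vitro group I ribozyme library with randomized positions was T7-transcribed and gel-purified. In triplicate, 10 pmol RNA in EPPS pH 7.5 was reacted with 50 pmoles of a 30-nt RNA substrate for 1 h at 37 °C across several added MgCl2 levels (1–48 mM), then stopped with EDTA. Products were reverse transcribed from a substrate-complementary primer, PCR-amplified and sequenced (HiSeq 4000). Fitness is a variant's read proportion after selection over that before, normalised to wild type.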

Variant	reverse-splicing fitness
C82U A111U A120G C150U C169G U176G	0.00456
C82U A111U A120G C150U C169G U176C	0.0168
C82U A111U A120G C150U C169G U176A	0.0146
C82U A111U A120U A145C C150G C169G U176C	0.00216
C82U A111U A120U A145C C150G C169G U176G	0.00175
C82U A111U A120U A145C C150G C169G U176A	0.00245
C82U A111U A120G C169A U176G	0.00417
C82U A111U A120G C169A U176A	0.0178
C82U A111U A120G C169A U176C	0.0221
C82U A111U A120U A145C C150U C169A U176A	0.00217
C82U A111U A120U A145C C150U C169A U176G	0.00178
C82U A111U A120U A145C C150U C169A U176C	0.00253
C82U A111U A120G A145G C150U C169G U176A	0.0129
C82U A111U A120G A145G C150U C169G U176G	0.00411
C82U A111U A120G A145G C150U C169G U176C	0.016
C82U A111U A120G A145C C150G	0.00668
C82U A111U A120G A145C C150U	0.0086
C82U A111U A120U A145C C169G U176C	0.00221
C82U A111U A120U A145C C169G U176G	0.0016
C82U A111U A120U A145C C169G U176A	0.00238
C82U A111U A120G A145G C150U C169U U176A	0.0194

Variant	reverse-splicing fitness
C82U A111U A120G A145G C150U C169U U176G	0.00481
C82U A111U A120G A145G C150U C169U U176C	0.014
C82U A111U A120G A145G C150G C169U U176G	0.00647
C82U A111U A120G A145G C150G C169U U176A	0.012
C82U A111U A120G A145G C150G C169U U176C	0.0112
C82U A111U A120G A145G C150A C169U U176C	0.0157
C82U A111U A120G A145G C150A C169U U176G	0.00536
C82U A111U A120G A145G C150A C169U U176A	0.0205
C82U A111U A120U A145C C169G	0.00316
C82U A111U A120U A145C C169U	0.00314
C82U A111U A120U A145C C169A	0.00225
C82U A111U A120U A145G C150A C169U U176A	0.00439
C82U A111U A120U A145G C150A C169U U176G	0.00228
C82U A111U A120U A145G C150A C169U U176C	0.00345
C82U A111U A120G A145G C150U C169A U176A	0.0135
C82U A111U A120G A145G C150U C169A U176C	0.0123
C82U A111U A120G A145G C150U C169A U176G	0.00525
C82U A111U A120U A145G C150A U176G	0.00271
C82U A111U A120U A145G C150A U176A	0.00691
C82U A111U A120U A145G C150A U176C	0.00627
C82U A111U A120G A145G C150A C169A	0.0105

Variant	reverse-splicing fitness
C82U A111U A120G A145G C150A C169U	0.00848
C82U A111U A120G A145G C150A C169G	0.00828
C82U A111U A120U A145C U176A	0.00627
C82U A111U A120U A145C U176G	0.00259
C82U A111U A120U A145C U176C	0.00756
C82U A111U A120G C150U C169A U176G	0.005
C82U A111U A120G C150U C169A U176C	0.0129
C82U A111U A120G C150U C169A U176A	0.0156
C82U A111U A120G C150U C169U	0.00882
C82U A111U A120G C150U C169G	0.00909
C82U A111U A120G C150U C169A	0.0102
C82U A111U A120G A145C C150A U176G	0.00379
C82U A111U A120G A145C C150A U176A	0.00746
C82U A111U A120G A145C C150A U176C	0.00836
C82U A111U A120G A145U C169U U176G	0.0035
C82U A111U A120G A145U C169U U176C	0.0132
C82U A111U A120G A145U C169U U176A	0.0203
C82U A111U A120G C169U	0.0086
C82U A111U A120G C169A	0.00883
C82U A111U A120G C169G	0.01
C82U A111U A120G A145C C150A C169U U176C	0.00977

Variant	reverse-splicing fitness
C82U A111U A120G A145C C150A C169U U176G	0.00474
C82U A111U A120G A145U C150G U176A	0.00538
C82U A111U A120G A145U C150G U176C	0.00777
C82U A111U A120G A145U C150G U176G	0.00302
C82U A111U A120G A145U C150G C169G	0.00671
C82U A111U A120G A145U C150G C169U	0.00779
C82U A111U A120G A145U C150G C169A	0.00759
C82U A111U A120G A145G C150A C169A U176A	0.0153
C82U A111U A120G A145G C150A C169A U176G	0.00564
C82U A111U A120G A145G C150A C169A U176C	0.02
C82U A111U A120U A145G C150A C169G	0.00478
C82U A111U A120U A145G C150A C169U	0.00374
C82U A111U A120U A145G C150A C169A	0.00571
C82U A111U A120G A145U C150U C169G U176G	0.00463
C82U A111U A120G A145U C150U C169G U176A	0.0119
C82U A111U A120G A145U C150U C169G U176C	0.0134
C82U A111U A120G A145C C150G C169A	0.00779
C82U A111U A120G A145C C150G C169U	0.00686
C82U A111U A120G A145C C150G C169G	0.0068
C82U A111U A120G A145C C169U U176G	0.00376
C82U A111U A120G A145C C169U U176C	0.0108
